Reference: patent US20250388669A1 (published 2025)

Legend:
[1] = biological target: CD40 (UniProt P25942 21-193, limits assumed); experiment: FCM or ELISA, graded
[2] = biological target: PD-1 (binding assay) (UniProt Q15116 25-167, limits assumed); experiment: FCM or ELISA, graded
[3] = biological target: T1, CD19 (human, UniProt P15391 20-556); experiment: cell-based or functional assay
T1 sequence (looked up): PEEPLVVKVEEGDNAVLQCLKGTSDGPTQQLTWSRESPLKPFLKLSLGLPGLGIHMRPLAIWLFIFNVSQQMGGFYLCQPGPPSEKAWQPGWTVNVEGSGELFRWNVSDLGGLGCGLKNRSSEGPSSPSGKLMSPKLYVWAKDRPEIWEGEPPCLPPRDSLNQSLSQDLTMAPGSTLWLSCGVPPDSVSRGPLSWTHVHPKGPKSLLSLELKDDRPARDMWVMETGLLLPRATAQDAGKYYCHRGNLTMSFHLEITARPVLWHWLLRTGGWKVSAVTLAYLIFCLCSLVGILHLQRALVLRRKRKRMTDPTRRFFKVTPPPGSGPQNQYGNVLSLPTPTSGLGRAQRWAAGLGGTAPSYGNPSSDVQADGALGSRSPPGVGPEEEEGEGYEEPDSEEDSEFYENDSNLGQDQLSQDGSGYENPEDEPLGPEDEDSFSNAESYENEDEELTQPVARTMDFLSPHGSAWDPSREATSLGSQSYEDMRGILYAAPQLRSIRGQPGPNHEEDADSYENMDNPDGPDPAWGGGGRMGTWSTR

[4] = biological target: T2, CD137 (human, UniProt Q07011 24-186); experiment: CD137 binding by FCM or ELISA
T2 construct: Reporter assays used GS-H2-huCD137 cells expressing human CD137; also called 4-1BB/CD137; huCD137

Sequence of CD40 (P25942 21-193 limits assumed): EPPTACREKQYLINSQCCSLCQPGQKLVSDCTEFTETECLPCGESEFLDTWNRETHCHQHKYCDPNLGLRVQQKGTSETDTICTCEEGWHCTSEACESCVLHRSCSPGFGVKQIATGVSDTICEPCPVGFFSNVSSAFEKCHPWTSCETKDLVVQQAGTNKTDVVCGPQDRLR
Sequence of PD-1 (binding assay) (Q15116 25-167 limits assumed): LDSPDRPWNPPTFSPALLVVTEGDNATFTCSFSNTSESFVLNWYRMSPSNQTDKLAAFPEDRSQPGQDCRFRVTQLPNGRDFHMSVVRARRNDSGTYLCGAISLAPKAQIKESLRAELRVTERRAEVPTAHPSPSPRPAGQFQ

Binder | binding result [1] | binding result [2] | EC50 of cytotoxicity (LDH release), Raji cells with human PBMCs, 48 hours [3] | binding result [4]
Ly2415 (bispecific antibody, human IgG1, kappa, PD-1 Fabs (Ly516) x terminal CD40 Fv (TM559)) heavy 1: QVTLKESGPALVKPTQTLTLTCTFSGFSLSTSGTCVSWIRQPPGKALEWLATICWEDSKGYNPSLKSRLTISKDTSKNQAVLTMTNMDPVDTATYYCARREDSGYFWFPYWGQGTLVTVSSASTKGPSVFPLAPSSKSTSGGTAALGCLVKDYFPEPVTVSWNSGALTSGVHTFPAVLQSSGLYSLSSVVTVPSSSLGTQTYICNVNHKPSNTKVDKKVEPKSCDKTHTCPPCPAPEAAGPSVFLFPPKPKDTLMISRTPEVTCVVVDVSHEDPEVKFNWYVDGVEVHNAKTKPREEQYNSTYRVVSVLTVLHQDWLNGKEYKCKVSNKALPAPIEKTISKAKGQPREPQVYTLPPSREEMTKNQVSLWCLVKGFYPSDIAVEWESNGQPENNYKTTPPVLDSDGSFFLYSKLTVDKSRWQQGNVFSCSVMHEALHNHYTQKSLSLSPGGGGGSGGGGSGGGGSGGGGSEVQLVESGGGLVQPGGSLRLSCAASGFTFTNYGLHWVRQAPGKGLEWVSSISPSGGVTYYRDSVKGRFTISRDNSKNTLYLQMNSLRAEDTAVYYCAKPFLGWGGANWIAHWGQGTLVTVSS heavy 2: QVTLKESGPALVKPTQTLTLTCTFSGFSLSTSGTCVSWIRQPPGKALEWLATICWEDSKGYNPSLKSRLTISKDTSKNQAVLTMTNMDPVDTATYYCARREDSGYFWFPYWGQGTLVTVSSASTKGPSVFPLAPSSKSTSGGTAALGCLVKDYFPEPVTVSWNSGALTSGVHTFPAVLQSSGLYSLSSVVTVPSSSLGTQTYICNVNHKPSNTKVDKKVEPKSCDKTHTCPPCPAPEAAGPSVFLFPPKPKDTLMISRTPEVTCVVVDVSHEDPEVKFNWYVDGVEVHNAKTKPREEQYNSTYRVVSVLTVLHQDWLNGKEYKCKVSNKALPAPIEKTISKAKGQPREPQVYTLPPSREEMTKNQVSLSCAVKGFYPSDIAVEWESNGQPENNYKTTPPVLDSDGSFFLVSKLTVDKSRWQQGNVFSCSVMHEALHNRFTQKSLSLSPGGGGGSGGGGSGGGGSGGGGSDIQMTQSPSSLSASVGDRVTITCLASEDISNDLAWYQQKPGKAPKLLIYFVDRLLDGVPSRFSGSGSGTDFTLTISSLQPEDFATYYCQQSYKYPPTFGQGTKLEIK light: NIQMTQSPSSLSASVGDRVTITCKAGQNVNNYLAWYQQKPGKAPKVLIFNANSLQTGVPSRFSGSGSGTDFTLTISSLQPEDFATYYCQQYNSWPTFGGGTKVEIKRTVAAPSVFIFPPSDEQLKSGTASVVCLLNNFYPREAKVQWKVDNALQSGNSQESVTEQDSKDSTYSLSSTLTLSKADYEKHKVYACEVTHQGLSSPVTKSFNRGEC | binds | binds | – | –
Ly1966 (other, Tri-specific CD19/CD3/CD137: two CD19 Fabs, central CD3 Fv, terminal CD137 Fv) chain 1: QVQLQQSGAELVRPGSSVKISCKASGYAFSSYWMNWVKQRPGQGLEWIGQIWPGDGDTNYNGKFKGKATLTADESSSTAYMQLSSLASEDSAVYFCARRETTTVGRYYYAMDYWGQGTTVTVSSASTKGPSVFPLAPSSKSTSGGTAALGCLVKDYFPEPVTVSWNSGALTSGVHTFPAVLQSSGLYSLSSVVTVPSSSLGTQTYICNVNHKPSNTKVDKKVEPKSCGGGGSGGGGSGGGGSGGGGSEVQLVESGGGLVQPGGSLRLSCAASGFTFSTYAMNWVRQAPGKGLEWVGRIRSKYNNYATYYADSVKGRFTISRDDSKNSLYLQMNSLKTEDTAVYYCVRHGNFGNSYVSWFAYWGQGTLVTVSSGGGGSDKTHTCPPCPAPEAAGPSVFLFPPKPKDTLMISRTPEVTCVVVDVSHEDPEVKFNWYVDGVEVHNAKTKPREEQYNSTYRVVSVLTVLHQDWLNGKEYKCKVSNKALPAPIEKTISKAKGQPREPQVYTLPPSREEMTKNQVSLWCLVKGFYPSDIAVEWESNGQPENNYKTTPPVLDSDGSFFLYSKLTVDKSRWQQGNVFSCSVMHEALHNHYTQKSLSLSPGGGGGSGGGGSGGGGSGGGGSQVQLVQSGAEVKKPGASVKVSCKASGYTFAGFEMHWVRQAPGQGLEWMGAIDPKTGGTDYNQKFKDRVTMTRDTSISTAYMELSRLRSDDTAVYYCARDLGYFDVWGQGTLVTVSS chain 2: QVQLQQSGAELVRPGSSVKISCKASGYAFSSYWMNWVKQRPGQGLEWIGQIWPGDGDTNYNGKFKGKATLTADESSSTAYMQLSSLASEDSAVYFCARRETTTVGRYYYAMDYWGQGTTVTVSSASTKGPSVFPLAPSSKSTSGGTAALGCLVKDYFPEPVTVSWNSGALTSGVHTFPAVLQSSGLYSLSSVVTVPSSSLGTQTYICNVNHKPSNTKVDKKVEPKSCGGGGSGGGGSGGGGSGGGGSQAVVTQEPSLTVSPGGTVTLTCRSSTGAVTTSNYANWVQQKPGQAPRGLIGGTNKRAPWTPARFSGSLLGGKAALTITGAQAEDEADYYCALWYSNLWVFGGGTKLTVLGGGGSDKTHTCPPCPAPEAAGPSVFLFPPKPKDTLMISRTPEVTCVVVDVSHEDPEVKFNWYVDGVEVHNAKTKPREEQYNSTYRVVSVLTVLHQDWLNGKEYKCKVSNKALPAPIEKTISKAKGQPREPQVYTLPPSREEMTKNQVSLSCAVKGFYPSDIAVEWESNGQPENNYKTTPPVLDSDGSFFLVSKLTVDKSRWQQGNVFSCSVMHEALHNRFTQKSLSLSPGGGGGSGGGGSGGGGSGGGGSDIQMTQSPSSLSASVGDRVTITCRASQDIRSNLNWYQQKPGGAVKLLIYYTSRLHSGVPSRFSGSGSGTDYTLTISSLQPEDFATYFCQQSEKLPRTFGGGTKVEIR light: not shown | – | – | 10.8 pM | binds
Ly1967 (other) chain 1: QVQLQQSGAELVRPGSSVKISCKASGYAFSSYWMNWVKQRPGQGLEWIGQIWPGDGDTNYNGKFKGKATLTADESSSTAYMQLSSLASEDSAVYFCARRETTTVGRYYYAMDYWGQGTTVTVSSASTKGPSVFPLAPSSKSTSGGTAALGCLVKDYFPEPVTVSWNSGALTSGVHTFPAVLQSSGLYSLSSVVTVPSSSLGTQTYICNVNHKPSNTKVDKKVEPKSCGGGGSGGGGSGGGGSGGGGSEVQLVESGGGLVQPGGSLRLSCAASGFTFSTYAMNWVRQAPGKGLEWVGRIRSKYNNYATYYADSVKGRFTISRDDSKNSLYLQMNSLKTEDTAVYYCVRHGNFGNSYVSWFAYWGQGTLVTVSSGGGGSDKTHTCPPCPAPEAAGPSVFLFPPKPKDTLMISRTPEVTCVVVDVSHEDPEVKFNWYVDGVEVHNAKTKPREEQYNSTYRVVSVLTVLHQDWLNGKEYKCKVSNKALPAPIEKTISKAKGQPREPQVYTLPPSREEMTKNQVSLWCLVKGFYPSDIAVEWESNGQPENNYKTTPPVLDSDGSFFLYSKLTVDKSRWQQGNVFSCSVMHEALHNHYTQKSLSLSPGGGGGSGGGGSGGGGSGGGGSQVQLVQSGAEVKKPGASVKVSCKASGYTFAGFEMHWVRQAPGQGLEWMGAIDPKTGGTDYNQKFKDRVTMTRDTSISTAYMELSRLRSDDTAVYYCARDLGYFDVWGQGTLVTVSS chain 2: QVQLQQSGAELVRPGSSVKISCKASGYAFSSYWMNWVKQRPGQGLEWIGQIWPGDGDTNYNGKFKGKATLTADESSSTAYMQLSSLASEDSAVYFCARRETTTVGRYYYAMDYWGQGTTVTVSSASTKGPSVFPLAPSSKSTSGGTAALGCLVKDYFPEPVTVSWNSGALTSGVHTFPAVLQSSGLYSLSSVVTVPSSSLGTQTYICNVNHKPSNTKVDKKVEPKSCGGGGSGGGGSGGGGSGGGGSQAVVTQEPSLTVSPGGTVTLTCRSSTGAVTTSNYANWVQQKPGQAPRGLIGGTNKRAPWTPARFSGSLLGGKAALTITGAQAEDEADYYCALWYSNLWVFGGGTKLTVLGGGGSDKTHTCPPCPAPEAAGPSVFLFPPKPKDTLMISRTPEVTCVVVDVSHEDPEVKFNWYVDGVEVHNAKTKPREEQYNSTYRVVSVLTVLHQDWLNGKEYKCKVSNKALPAPIEKTISKAKGQPREPQVYTLPPSREEMTKNQVSLSCAVKGFYPSDIAVEWESNGQPENNYKTTPPVLDSDGSFFLVSKLTVDKSRWQQGNVFSCSVMHEALHNHYTQKSLSLSPGGGGGSGGGGSGGGGSGGGGSDIQMTQSPSSLSASVGDRVTITCRASQDIRSNLNWYQQKPGGAVKLLIYYTSRLHSGVPSRFSGSGSGTDYTLTISSLQPEDFATYFCQQSEKLPRTFGGGTKVEIR light: not shown | – | – | 8.9 pM | binds
